Reference: patent US20210388087A1 (Chugai, published 2021)

What follows are binders tested against T1, Human CD137 ECD (human) (assay: Biacore SPR, vs parent H183/L072).
T1 construct: entry includes C-terminal His-tag and biotin acceptor peptide; also called human CD137 extracellular domain; 4-1BB
T1 sequence (chain, as listed by the source limits assumed): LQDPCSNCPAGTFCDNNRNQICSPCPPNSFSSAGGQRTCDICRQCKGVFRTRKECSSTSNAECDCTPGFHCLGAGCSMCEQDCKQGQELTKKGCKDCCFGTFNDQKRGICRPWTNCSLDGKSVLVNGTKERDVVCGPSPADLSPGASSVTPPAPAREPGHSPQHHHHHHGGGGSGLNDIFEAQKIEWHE

Binder | fold change of affinity
H183/L072 VL R54G (antibody, name in Kabat numbering, V domains shown, Dual-Ig) VH: QVQLVESGGGLVQPGRSLRLSCAASGFTFSNAWMHWVRQAPGKGLEWVAQIKDKGNAYAAYYAPSVKGRFTISRDDSKNSIYLQMNSLKTEDTAVYYCHYVHYASASTVLPAFGVDAWGQGTTVTVSS VL: DIVMTQSPLSLPVTPGEPASISCQASQELVHMNRNTYLHWYQQKPGQAPRLLIYKVSNGFPGVPDRFSGSGSGTDFTLKISRVEAEDVGVYYCAQGTSVPFTFGQGTKLEIK | 0.9 fold
H183/L072 VL R54W (antibody, name in Kabat numbering, V domains shown, Dual-Ig) VH: QVQLVESGGGLVQPGRSLRLSCAASGFTFSNAWMHWVRQAPGKGLEWVAQIKDKGNAYAAYYAPSVKGRFTISRDDSKNSIYLQMNSLKTEDTAVYYCHYVHYASASTVLPAFGVDAWGQGTTVTVSS VL: DIVMTQSPLSLPVTPGEPASISCQASQELVHMNRNTYLHWYQQKPGQAPRLLIYKVSNWFPGVPDRFSGSGSGTDFTLKISRVEAEDVGVYYCAQGTSVPFTFGQGTKLEIK | 0.4 fold
H183/L072 VL S26E (antibody, name in Kabat numbering, V domains shown, Dual-Ig) VH: QVQLVESGGGLVQPGRSLRLSCAASGFTFSNAWMHWVRQAPGKGLEWVAQIKDKGNAYAAYYAPSVKGRFTISRDDSKNSIYLQMNSLKTEDTAVYYCHYVHYASASTVLPAFGVDAWGQGTTVTVSS VL: DIVMTQSPLSLPVTPGEPASISCQAEQELVHMNRNTYLHWYQQKPGQAPRLLIYKVSNRFPGVPDRFSGSGSGTDFTLKISRVEAEDVGVYYCAQGTSVPFTFGQGTKLEIK | 0.8 fold
H183/L072 VL S26K (antibody, name in Kabat numbering, V domains shown, Dual-Ig) VH: QVQLVESGGGLVQPGRSLRLSCAASGFTFSNAWMHWVRQAPGKGLEWVAQIKDKGNAYAAYYAPSVKGRFTISRDDSKNSIYLQMNSLKTEDTAVYYCHYVHYASASTVLPAFGVDAWGQGTTVTVSS VL: DIVMTQSPLSLPVTPGEPASISCQAKQELVHMNRNTYLHWYQQKPGQAPRLLIYKVSNRFPGVPDRFSGSGSGTDFTLKISRVEAEDVGVYYCAQGTSVPFTFGQGTKLEIK | 0.5 fold
H183/L072 VL R54K (antibody, name in Kabat numbering, V domains shown, Dual-Ig) VH: QVQLVESGGGLVQPGRSLRLSCAASGFTFSNAWMHWVRQAPGKGLEWVAQIKDKGNAYAAYYAPSVKGRFTISRDDSKNSIYLQMNSLKTEDTAVYYCHYVHYASASTVLPAFGVDAWGQGTTVTVSS VL: DIVMTQSPLSLPVTPGEPASISCQASQELVHMNRNTYLHWYQQKPGQAPRLLIYKVSNKFPGVPDRFSGSGSGTDFTLKISRVEAEDVGVYYCAQGTSVPFTFGQGTKLEIK | 1 fold
H183/L072 VL R54M (antibody, name in Kabat numbering, V domains shown, Dual-Ig) VH: QVQLVESGGGLVQPGRSLRLSCAASGFTFSNAWMHWVRQAPGKGLEWVAQIKDKGNAYAAYYAPSVKGRFTISRDDSKNSIYLQMNSLKTEDTAVYYCHYVHYASASTVLPAFGVDAWGQGTTVTVSS VL: DIVMTQSPLSLPVTPGEPASISCQASQELVHMNRNTYLHWYQQKPGQAPRLLIYKVSNMFPGVPDRFSGSGSGTDFTLKISRVEAEDVGVYYCAQGTSVPFTFGQGTKLEIK | 0.5 fold
H183/L072 VL R54Q (antibody, name in Kabat numbering, V domains shown, Dual-Ig) VH: QVQLVESGGGLVQPGRSLRLSCAASGFTFSNAWMHWVRQAPGKGLEWVAQIKDKGNAYAAYYAPSVKGRFTISRDDSKNSIYLQMNSLKTEDTAVYYCHYVHYASASTVLPAFGVDAWGQGTTVTVSS VL: DIVMTQSPLSLPVTPGEPASISCQASQELVHMNRNTYLHWYQQKPGQAPRLLIYKVSNQFPGVPDRFSGSGSGTDFTLKISRVEAEDVGVYYCAQGTSVPFTFGQGTKLEIK | 0.8 fold
H183/L072 VL S26I (antibody, name in Kabat numbering, V domains shown, Dual-Ig) VH: QVQLVESGGGLVQPGRSLRLSCAASGFTFSNAWMHWVRQAPGKGLEWVAQIKDKGNAYAAYYAPSVKGRFTISRDDSKNSIYLQMNSLKTEDTAVYYCHYVHYASASTVLPAFGVDAWGQGTTVTVSS VL: DIVMTQSPLSLPVTPGEPASISCQAIQELVHMNRNTYLHWYQQKPGQAPRLLIYKVSNRFPGVPDRFSGSGSGTDFTLKISRVEAEDVGVYYCAQGTSVPFTFGQGTKLEIK | 0.2 fold
H183/L072 VL R54L (antibody, name in Kabat numbering, V domains shown, Dual-Ig) VH: QVQLVESGGGLVQPGRSLRLSCAASGFTFSNAWMHWVRQAPGKGLEWVAQIKDKGNAYAAYYAPSVKGRFTISRDDSKNSIYLQMNSLKTEDTAVYYCHYVHYASASTVLPAFGVDAWGQGTTVTVSS VL: DIVMTQSPLSLPVTPGEPASISCQASQELVHMNRNTYLHWYQQKPGQAPRLLIYKVSNLFPGVPDRFSGSGSGTDFTLKISRVEAEDVGVYYCAQGTSVPFTFGQGTKLEIK | 0.9 fold
H183/L072 VL R54T (antibody, name in Kabat numbering, V domains shown, Dual-Ig) VH: QVQLVESGGGLVQPGRSLRLSCAASGFTFSNAWMHWVRQAPGKGLEWVAQIKDKGNAYAAYYAPSVKGRFTISRDDSKNSIYLQMNSLKTEDTAVYYCHYVHYASASTVLPAFGVDAWGQGTTVTVSS VL: DIVMTQSPLSLPVTPGEPASISCQASQELVHMNRNTYLHWYQQKPGQAPRLLIYKVSNTFPGVPDRFSGSGSGTDFTLKISRVEAEDVGVYYCAQGTSVPFTFGQGTKLEIK | 2.5 fold
H183/L072 VL R54V (antibody, name in Kabat numbering, V domains shown, Dual-Ig) VH: QVQLVESGGGLVQPGRSLRLSCAASGFTFSNAWMHWVRQAPGKGLEWVAQIKDKGNAYAAYYAPSVKGRFTISRDDSKNSIYLQMNSLKTEDTAVYYCHYVHYASASTVLPAFGVDAWGQGTTVTVSS VL: DIVMTQSPLSLPVTPGEPASISCQASQELVHMNRNTYLHWYQQKPGQAPRLLIYKVSNVFPGVPDRFSGSGSGTDFTLKISRVEAEDVGVYYCAQGTSVPFTFGQGTKLEIK | 1.3 fold
H183/L072 VL R54I (antibody, name in Kabat numbering, V domains shown, Dual-Ig) VH: QVQLVESGGGLVQPGRSLRLSCAASGFTFSNAWMHWVRQAPGKGLEWVAQIKDKGNAYAAYYAPSVKGRFTISRDDSKNSIYLQMNSLKTEDTAVYYCHYVHYASASTVLPAFGVDAWGQGTTVTVSS VL: DIVMTQSPLSLPVTPGEPASISCQASQELVHMNRNTYLHWYQQKPGQAPRLLIYKVSNIFPGVPDRFSGSGSGTDFTLKISRVEAEDVGVYYCAQGTSVPFTFGQGTKLEIK | 1 fold
H183/L072 VL S26D (antibody, name in Kabat numbering, V domains shown, Dual-Ig) VH: QVQLVESGGGLVQPGRSLRLSCAASGFTFSNAWMHWVRQAPGKGLEWVAQIKDKGNAYAAYYAPSVKGRFTISRDDSKNSIYLQMNSLKTEDTAVYYCHYVHYASASTVLPAFGVDAWGQGTTVTVSS VL: DIVMTQSPLSLPVTPGEPASISCQADQELVHMNRNTYLHWYQQKPGQAPRLLIYKVSNRFPGVPDRFSGSGSGTDFTLKISRVEAEDVGVYYCAQGTSVPFTFGQGTKLEIK | 0.8 fold
H183/L072 VL R54S (antibody, name in Kabat numbering, V domains shown, Dual-Ig) VH: QVQLVESGGGLVQPGRSLRLSCAASGFTFSNAWMHWVRQAPGKGLEWVAQIKDKGNAYAAYYAPSVKGRFTISRDDSKNSIYLQMNSLKTEDTAVYYCHYVHYASASTVLPAFGVDAWGQGTTVTVSS VL: DIVMTQSPLSLPVTPGEPASISCQASQELVHMNRNTYLHWYQQKPGQAPRLLIYKVSNSFPGVPDRFSGSGSGTDFTLKISRVEAEDVGVYYCAQGTSVPFTFGQGTKLEIK | 0.9 fold
H183/L072 VL S26L (antibody, name in Kabat numbering, V domains shown, Dual-Ig) VH: QVQLVESGGGLVQPGRSLRLSCAASGFTFSNAWMHWVRQAPGKGLEWVAQIKDKGNAYAAYYAPSVKGRFTISRDDSKNSIYLQMNSLKTEDTAVYYCHYVHYASASTVLPAFGVDAWGQGTTVTVSS VL: DIVMTQSPLSLPVTPGEPASISCQALQELVHMNRNTYLHWYQQKPGQAPRLLIYKVSNRFPGVPDRFSGSGSGTDFTLKISRVEAEDVGVYYCAQGTSVPFTFGQGTKLEIK | 0.3 fold
H183/L072 VL S26F (antibody, name in Kabat numbering, V domains shown, Dual-Ig) VH: QVQLVESGGGLVQPGRSLRLSCAASGFTFSNAWMHWVRQAPGKGLEWVAQIKDKGNAYAAYYAPSVKGRFTISRDDSKNSIYLQMNSLKTEDTAVYYCHYVHYASASTVLPAFGVDAWGQGTTVTVSS VL: DIVMTQSPLSLPVTPGEPASISCQAFQELVHMNRNTYLHWYQQKPGQAPRLLIYKVSNRFPGVPDRFSGSGSGTDFTLKISRVEAEDVGVYYCAQGTSVPFTFGQGTKLEIK | 0.2 fold
H183/L072 VL S26G (antibody, name in Kabat numbering, V domains shown, Dual-Ig) VH: QVQLVESGGGLVQPGRSLRLSCAASGFTFSNAWMHWVRQAPGKGLEWVAQIKDKGNAYAAYYAPSVKGRFTISRDDSKNSIYLQMNSLKTEDTAVYYCHYVHYASASTVLPAFGVDAWGQGTTVTVSS VL: DIVMTQSPLSLPVTPGEPASISCQAGQELVHMNRNTYLHWYQQKPGQAPRLLIYKVSNRFPGVPDRFSGSGSGTDFTLKISRVEAEDVGVYYCAQGTSVPFTFGQGTKLEIK | 0.9 fold
H183/L072 VL R54H (antibody, name in Kabat numbering, V domains shown, Dual-Ig) VH: QVQLVESGGGLVQPGRSLRLSCAASGFTFSNAWMHWVRQAPGKGLEWVAQIKDKGNAYAAYYAPSVKGRFTISRDDSKNSIYLQMNSLKTEDTAVYYCHYVHYASASTVLPAFGVDAWGQGTTVTVSS VL: DIVMTQSPLSLPVTPGEPASISCQASQELVHMNRNTYLHWYQQKPGQAPRLLIYKVSNHFPGVPDRFSGSGSGTDFTLKISRVEAEDVGVYYCAQGTSVPFTFGQGTKLEIK | 0.6 fold
H183/L072 VL S26H (antibody, name in Kabat numbering, V domains shown, Dual-Ig) VH: QVQLVESGGGLVQPGRSLRLSCAASGFTFSNAWMHWVRQAPGKGLEWVAQIKDKGNAYAAYYAPSVKGRFTISRDDSKNSIYLQMNSLKTEDTAVYYCHYVHYASASTVLPAFGVDAWGQGTTVTVSS VL: DIVMTQSPLSLPVTPGEPASISCQAHQELVHMNRNTYLHWYQQKPGQAPRLLIYKVSNRFPGVPDRFSGSGSGTDFTLKISRVEAEDVGVYYCAQGTSVPFTFGQGTKLEIK | 0.2 fold
H183/L072 VL R54P (antibody, name in Kabat numbering, V domains shown, Dual-Ig) VH: QVQLVESGGGLVQPGRSLRLSCAASGFTFSNAWMHWVRQAPGKGLEWVAQIKDKGNAYAAYYAPSVKGRFTISRDDSKNSIYLQMNSLKTEDTAVYYCHYVHYASASTVLPAFGVDAWGQGTTVTVSS VL: DIVMTQSPLSLPVTPGEPASISCQASQELVHMNRNTYLHWYQQKPGQAPRLLIYKVSNPFPGVPDRFSGSGSGTDFTLKISRVEAEDVGVYYCAQGTSVPFTFGQGTKLEIK | 0.9 fold
